Data on one substance can be found in paper PMC9639781.

For this experiment, the target named is ATP synthase (endogenous, mouse cardiomyocytes) (mouse (endogenous in mouse neonatal cardiomyocytes)) (UniProt P56480). The experiment is described as follows: native gel or EMSA. (In general: Mobility shift assays separate free from complexed probe on a gel.)

In the case of “ATP synthase (endogenous, mouse cardiomyocytes) (from UniProt P56480 47-529; Q9DCX2 1-161; Q9DB20 24-213; Q9CQQ7 43-256) (complex)”, the stoichiometry N (in general, the number of molecules, sites or subunits per partner or assembly) stood at 2.
